Laboratory results published in patent US20040058369A1.

Target: αRXR co-transfected into HEK293 cells
Test: cell-based or functional assay

induction of reporter activity in HEK293 cells co-transfected with αRXR, effector and reporter, compared to the untreated cells: 9 fold | reporter activity with αRXR co-transfected, compared to cells transfected with effector and reporter alone: 4 fold
Substance: Heliothis virescens ecdysone receptor (HEcR) as expressed from effector plasmid pcDNA3H3KHEcR
